{
  "source": "patent US20250011363A1",
  "about": "“OPTIMIZED SHORTENED PEPTIDE THAT BINDS TO ACETYLCHOLINE RECEPTOR, AND USE THEREOF” (SKINMED CO., LTD., priority 2021, published 2025)",
  "binders": {"B1": {"name": "6mer-1-1005 (peptide)", "peptide": "RKPPDR"}, "B2": {"name": "6mer-1-1006 (peptide)", "peptide": "KKDKIK"}, "B3": {"name": "6mer-1-1007 (peptide)", "peptide": "RKPTDR"}, "B4": {"name": "6mer-1-1008 (peptide)", "peptide": "RKPWAR"}, "B5": {"name": "6mer-1-1009 (peptide)", "peptide": "RKMSKK"}, "B6": {"name": "6mer-1-1010 (peptide)", "peptide": "KKPKHK"}, "B7": {"name": "6mer-1-1011 (peptide)", "peptide": "RKKPEK"}, "B8": {"name": "6mer-1-1012 (peptide)", "peptide": "RRAWVR"}, "B9": {"name": "6mer-1-1013 (peptide)", "peptide": "KKTTNK"}, "B10": {"name": "6mer-1-1014 (peptide)", "peptide": "KKNAWR"}, "B11": {"name": "6mer-1-1015 (peptide)", "peptide": "KREEWR"}, "B12": {"name": "6mer-1-1016 (peptide)", "peptide": "KRHTHR"}, "B13": {"name": "6mer-1-1017 (peptide)", "peptide": "KRANMK"}, "B14": {"name": "6mer-1-1018 (peptide)", "peptide": "KKTAFK"}, "B15": {"name": "6mer-1-1019 (peptide)", "peptide": "KRDAWR"}, "B16": {"name": "6mer-1-1020 (peptide)", "peptide": "KKMEAK"}, "B17": {"name": "6mer-1-1021 (peptide)", "peptide": "KKHDIK"}, "B18": {"name": "6mer-1-1022 (peptide)", "peptide": "RKDTVR"}, "B19": {"name": "6mer-1-1023 (peptide)", "peptide": "KRIMHK"}, "B20": {"name": "6mer-1-1024 (peptide)", "peptide": "RKTEIR"}, "B21": {"name": "6mer-1-1025 (peptide)", "peptide": "KRFAKR"}, "B22": {"name": "6mer-1-1026 (peptide)", "peptide": "RKKCER"}, "B23": {"name": "6mer-1-1027 (peptide)", "peptide": "KKPWHK"}, "B24": {"name": "6mer-1-1028 (peptide)", "peptide": "RRHCWR"}, "B25": {"name": "6mer-1-1029 (peptide)", "peptide": "RRCMAK"}, "B26": {"name": "6mer-1-1030 (peptide)", "peptide": "KKFCFR"}, "B27": {"name": "6mer-1-1031 (peptide)", "peptide": "RKDTHK"}, "B28": {"name": "6mer-1-1032 (peptide)", "peptide": "KKTSMR"}, "B29": {"name": "6mer-1-1033 (peptide)", "peptide": "KRHMVK"}, "B30": {"name": "6mer-1-1034 (peptide)", "peptide": "KKASDR"}, "B31": {"name": "6mer-1-1035 (peptide)", "peptide": "RRCHHR"}, "B32": {"name": "6mer-1-1036 (peptide)", "peptide": "KKITFR"}, "B33": {"name": "6mer-1-1037 (peptide)", "peptide": "RRKNNR"}, "B34": {"name": "6mer-1-1038 (peptide)", "peptide": "RRKKIR"}, "B35": {"name": "6mer-1-1039 (peptide)", "peptide": "KRADIK"}, "B36": {"name": "6mer-1-1040 (peptide)", "peptide": "KRIEFR"}, "B37": {"name": "6mer-1-1041 (peptide)", "peptide": "RKEHGK"}, "B38": {"name": "6mer-1-1042 (peptide)", "peptide": "KKITAR"}, "B39": {"name": "6mer-1-1043 (peptide)", "peptide": "KRAAHR"}, "B40": {"name": "6mer-1-1044 (peptide)", "peptide": "KKHHIR"}, "B41": {"name": "6mer-1-1045 (peptide)", "peptide": "KKTPGR"}, "B42": {"name": "6mer-1-1046 (peptide)", "peptide": "RKDPHR"}, "B43": {"name": "6mer-1-1047 (peptide)", "peptide": "RKATDK"}, "B44": {"name": "6mer-1-1048 (peptide)", "peptide": "RRCMMK"}, "B45": {"name": "6mer-1-1049 (peptide)", "peptide": "KKDHKK"}, "B46": {"name": "6mer-1-1050 (peptide)", "peptide": "KKMEDR"}, "B47": {"name": "6mer-1-1051 (peptide)", "peptide": "KKKSFK"}, "B48": {"name": "6mer-1-1052 (peptide)", "peptide": "KRHWIR"}, "B49": {"name": "6mer-1-1053 (peptide)", "peptide": "RKYTPK"}, "B50": {"name": "6mer-1-1054 (peptide)", "peptide": "RRMKVK"}, "B51": {"name": "6mer-1-1055 (peptide)", "peptide": "KRCNDK"}, "B52": {"name": "6mer-1-1056 (peptide)", "peptide": "RRNTAK"}, "B53": {"name": "6mer-1-1057 (peptide)", "peptide": "KRKPVR"}, "B54": {"name": "6mer-1-1058 (peptide)", "peptide": "KRFPWR"}, "B55": {"name": "6mer-1-1059 (peptide)", "peptide": "RRETVK"}, "B56": {"name": "6mer-1-1060 (peptide)", "peptide": "KRYNVR"}, "B57": {"name": "6mer-1-1061 (peptide)", "peptide": "RRISIR"}, "B58": {"name": "6mer-1-1062 (peptide)", "peptide": "RRICMR"}, "B59": {"name": "6mer-1-1063 (peptide)", "peptide": "KKIDHK"}, "B60": {"name": "6mer-1-1064 (peptide)", "peptide": "RKPTAK"}, "B61": {"name": "6mer-2-601 (peptide)", "peptide": "KNSHKK"}, "B62": {"name": "6mer-2-602 (peptide)", "peptide": "RNTPKR"}, "B63": {"name": "6mer-2-603 (peptide)", "peptide": "KFHARR"}, "B64": {"name": "6mer-2-604 (peptide)", "peptide": "KEPIRK"}, "B65": {"name": "6mer-2-605 (peptide)", "peptide": "KNCGKK"}, "B66": {"name": "6mer-2-606 (peptide)", "peptide": "RKPFRR"}, "B67": {"name": "6mer-2-607 (peptide)", "peptide": "KKWVKR"}, "B68": {"name": "6mer-2-608 (peptide)", "peptide": "RCNHKK"}, "B69": {"name": "6mer-2-609 (peptide)", "peptide": "RDSDRR"}, "B70": {"name": "6mer-2-610 (peptide)", "peptide": "RKNPKR"}, "B71": {"name": "6mer-2-611 (peptide)", "peptide": "RIKMRR"}, "B72": {"name": "6mer-2-612 (peptide)", "peptide": "RDCVRK"}, "B73": {"name": "6mer-2-613 (peptide)", "peptide": "KAANRR"}, "B74": {"name": "6mer-2-614 (peptide)", "peptide": "KAWIRR"}, "B75": {"name": "6mer-2-615 (peptide)", "peptide": "KDNGRK"}, "B76": {"name": "6mer-2-616 (peptide)", "peptide": "REPHRK"}, "B77": {"name": "6mer-2-617 (peptide)", "peptide": "RCNGRR"}, "B78": {"name": "6mer-2-618 (peptide)", "peptide": "KHHKKR"}},
  "data": [
    {"molecular_target": "acetylcholine receptor", "assay": "SPR, AchR immobilised on CM5 chip, peptide 10 uM", "units": {"Binding affinity (RU)": "RU"}, "values": [
      {"binder": "B1", "Binding affinity (RU)": 26},
      {"binder": "B2", "Binding affinity (RU)": 25},
      {"binder": "B3", "Binding affinity (RU)": 39},
      {"binder": "B4", "Binding affinity (RU)": 21},
      {"binder": "B5", "Binding affinity (RU)": 29},
      {"binder": "B6", "Binding affinity (RU)": 33},
      {"binder": "B7", "Binding affinity (RU)": 35},
      {"binder": "B8", "Binding affinity (RU)": 35},
      {"binder": "B9", "Binding affinity (RU)": 29},
      {"binder": "B10", "Binding affinity (RU)": 25},
      {"binder": "B11", "Binding affinity (RU)": 26},
      {"binder": "B12", "Binding affinity (RU)": 21},
      {"binder": "B13", "Binding affinity (RU)": 37},
      {"binder": "B14", "Binding affinity (RU)": 28},
      {"binder": "B15", "Binding affinity (RU)": 37},
      {"binder": "B16", "Binding affinity (RU)": 38},
      {"binder": "B17", "Binding affinity (RU)": 41},
      {"binder": "B18", "Binding affinity (RU)": 22},
      {"binder": "B19", "Binding affinity (RU)": 39},
      {"binder": "B20", "Binding affinity (RU)": 36},
      {"binder": "B21", "Binding affinity (RU)": 33},
      {"binder": "B22", "Binding affinity (RU)": 30},
      {"binder": "B23", "Binding affinity (RU)": 22},
      {"binder": "B24", "Binding affinity (RU)": 36},
      {"binder": "B25", "Binding affinity (RU)": 40},
      {"binder": "B26", "Binding affinity (RU)": 30},
      {"binder": "B27", "Binding affinity (RU)": 38},
      {"binder": "B28", "Binding affinity (RU)": 27},
      {"binder": "B29", "Binding affinity (RU)": 30},
      {"binder": "B30", "Binding affinity (RU)": 24},
      {"binder": "B31", "Binding affinity (RU)": 34},
      {"binder": "B32", "Binding affinity (RU)": 21},
      {"binder": "B33", "Binding affinity (RU)": 36},
      {"binder": "B34", "Binding affinity (RU)": 21},
      {"binder": "B35", "Binding affinity (RU)": 40},
      {"binder": "B36", "Binding affinity (RU)": 28},
      {"binder": "B37", "Binding affinity (RU)": 23},
      {"binder": "B38", "Binding affinity (RU)": 40},
      {"binder": "B39", "Binding affinity (RU)": 30},
      {"binder": "B40", "Binding affinity (RU)": 24},
      {"binder": "B41", "Binding affinity (RU)": 27},
      {"binder": "B42", "Binding affinity (RU)": 38},
      {"binder": "B43", "Binding affinity (RU)": 30},
      {"binder": "B44", "Binding affinity (RU)": 36},
      {"binder": "B45", "Binding affinity (RU)": 31},
      {"binder": "B46", "Binding affinity (RU)": 38},
      {"binder": "B47", "Binding affinity (RU)": 43},
      {"binder": "B48", "Binding affinity (RU)": 33},
      {"binder": "B49", "Binding affinity (RU)": 27},
      {"binder": "B50", "Binding affinity (RU)": 37},
      {"binder": "B51", "Binding affinity (RU)": 40},
      {"binder": "B52", "Binding affinity (RU)": 27},
      {"binder": "B53", "Binding affinity (RU)": 43},
      {"binder": "B54", "Binding affinity (RU)": 21},
      {"binder": "B55", "Binding affinity (RU)": 39},
      {"binder": "B56", "Binding affinity (RU)": 21},
      {"binder": "B57", "Binding affinity (RU)": 41},
      {"binder": "B58", "Binding affinity (RU)": 27},
      {"binder": "B59", "Binding affinity (RU)": 25},
      {"binder": "B60", "Binding affinity (RU)": 41},
      {"binder": "B61", "Binding affinity (RU)": 25},
      {"binder": "B62", "Binding affinity (RU)": 24},
      {"binder": "B63", "Binding affinity (RU)": 32},
      {"binder": "B64", "Binding affinity (RU)": 16},
      {"binder": "B65", "Binding affinity (RU)": 17},
      {"binder": "B66", "Binding affinity (RU)": 15},
      {"binder": "B67", "Binding affinity (RU)": 31},
      {"binder": "B68", "Binding affinity (RU)": 32},
      {"binder": "B69", "Binding affinity (RU)": 24},
      {"binder": "B70", "Binding affinity (RU)": 32},
      {"binder": "B71", "Binding affinity (RU)": 22},
      {"binder": "B72", "Binding affinity (RU)": 17},
      {"binder": "B73", "Binding affinity (RU)": 18},
      {"binder": "B74", "Binding affinity (RU)": 19},
      {"binder": "B75", "Binding affinity (RU)": 27},
      {"binder": "B76", "Binding affinity (RU)": 26},
      {"binder": "B77", "Binding affinity (RU)": 32},
      {"binder": "B78", "Binding affinity (RU)": 12}
    ]}
  ]
}
